In patent publication US20240343811A1 (SHANDONG SIMCERE BIOPHARMACUTICAL, published 2024):
Values joined by “and” are separate entries in the source; they are usually repeats but may differ in a detail not shown here. Identical values can stand only once.

What was measured:
[1] = target: T1, human CD16a (158F), full length, on FlpinCHO cells (human, UniProt P08637 17-254); test: FACS, biotinylated antibody; biotinylated antibody, no human immunoglobulin; first batch of Table 12-2
Experimental: (§1) The medium was aspirated, and the cells were washed twice with a PBS buffer and then digested with trypsin. After the digestion was terminated, the cells were washed twice with the PBS buffer. The cells were counted, and then the cell pellet was resuspended with a [PBS+2% (w/w) BSA] blocking solution to 2×10⁶ cells/ml, and added to a 96-well FACS reaction plate at 50 μl/well. […] 50 μl/well of the antibody to be detected was added at different concentrations, and incubated on ice for 1 hour. […] The mixture was centrifuged and washed 5 times with PBS, and FACS (FACS Canto II, purchased from BD Company) was used for detection and result analysis. Data analysis was performed by software (CellQuest) to obtain the mean fluorescence intensity (MFI) of the cells. Then, software (GraphPad Prism8) was used for analysis, data fitting and EC50 value calculation.
(§2) An antibody to be detected was labeled in advance according to the instructions of a biotin labeling kit (EZ-Link™ NHS-PEG4 Biotinylation Kit, purchased from Thermofisher Scientific, catalog number: 21455). […] Detection was performed according to the method of Example 3.1, wherein the biotinylated antibody was detected with fluorescein APC-labeled Streptavidin (High Concentration) (purchased from Biolegend, catalog number: 405243).

[2] = target: T2, human CD16a (158V), full length, on cells (human, UniProt P08637 17-254); test: FACS, biotinylated antibody; biotinylated antibody, no human immunoglobulin; first batch of Table 11-1
T2 construct: also used as target for the bought Jurkat-NFAT reporter line stably expressing human CD16a (158V); also called FlpinCHO-human CD16a (158V); FlpinCHO-CD16a (158V)
Experimental: as §1, §2

[3] = target: T1, human CD16a (158F), full length, on …; test: FACS on FlpinCHO cells; no human immunoglobulin; unlabeled antibody, first batch of Table 10
Experimental: as §1, with “The required cells were scale-up cultured in a T-75 cell culture flask to the logarithmic growth phase. The medium” for “The medium”

[4] = target: T2, human CD16a (158V), full length, on …; test: as above
Experimental: as §1, with “The required cells were scale-up cultured in a T-75 cell culture flask to the logarithmic growth phase. The medium” for “The medium”

[5] = target: T1, human CD16a (158F), full length, on …; test: FACS on FlpinCHO cells; no human immunoglobulin; unlabeled antibody, second batch of Table 10
Experimental: as §1, with “The required cells were scale-up cultured in a T-75 cell culture flask to the logarithmic growth phase. The medium” for “The medium”

[6] = target: T2, human CD16a (158V), full length, on …; test: as above
Experimental: as §1, with “The required cells were scale-up cultured in a T-75 cell culture flask to the logarithmic growth phase. The medium” for “The medium”

[7] = target: T3, human CD16b (NA1), full length, on FlpinCHO cells (human, UniProt O75015 17-200); test: FACS on FlpinCHO cells
T3 construct: also called FlpinCHO-human CD16b (NA1)
T3 chain: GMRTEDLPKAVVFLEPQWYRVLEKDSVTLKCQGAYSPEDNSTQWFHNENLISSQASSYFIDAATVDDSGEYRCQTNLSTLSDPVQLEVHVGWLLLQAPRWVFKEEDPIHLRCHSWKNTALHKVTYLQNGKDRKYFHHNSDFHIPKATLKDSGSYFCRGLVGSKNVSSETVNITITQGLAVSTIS
In short: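 EC50 values come from fitted MFI curves measured by FACS. Antibody dilutions were bound for 1 hour on ice to CD16b-transfected FlpinCHO cells suspended in PBS with 2% BSA blocking solution.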

[8] = target: T4, CD16 on primary human NK cells (human, UniProt P08637 17-254); test: FACS on human NK cells, biotinylated antibody; NK cells, no human immunoglobulin; Table 15
T4 construct: whole, on cells; also called resting NK cells

[9] = target: T2, human CD16a (158V), full length, on …; test: cell-based or functional assay
[10] = target: T5, cynomolgus monkey CD16, full length, on FlpinCHO cells (cynomolgus monkey, UniProt Q8SPW2 17-254); test: FACS on FlpinCHO cells
T5 construct: also called FlpinCHO-cyno CD16; Flipin CHO-cyno CD16
T5 sequence (Q8SPW2 other isoform, or with tags, fused parts or gaps limits assumed): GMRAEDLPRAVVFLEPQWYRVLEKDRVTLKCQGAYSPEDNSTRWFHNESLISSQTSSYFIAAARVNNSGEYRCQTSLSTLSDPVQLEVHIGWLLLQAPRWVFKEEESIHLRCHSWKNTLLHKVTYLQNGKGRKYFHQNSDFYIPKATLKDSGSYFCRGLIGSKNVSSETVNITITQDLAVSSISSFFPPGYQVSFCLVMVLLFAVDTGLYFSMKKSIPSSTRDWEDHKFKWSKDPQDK
In short: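 FlpinCHO cells expressing full-length cynomolgus CD16, blocked in PBS/2% BSA at 2×10⁶ cells/ml, incubated with antibody at various concentrations 1 h on ice. Flow cytometry MFI fitted to give EC50.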

[11] = target: T4, CD16 on primary human NK cells; test: FACS on human NK cells, biotinylated antibody; NK cells, no human immunoglobulin; Table 29 (later experiment)
[12] = target: T1, human CD16a (158F), full length, on …; test: FACS, biotinylated antibody
[13] = target: T2, human CD16a (158V), full length, on …; test: FACS, biotinylated antibody

B1: 3G8 scFv-hFc (Fc fusion)
chain: DTVLTQSPASLAVSLGQRATISCKASQSVDFDGDSFMNWYQQKPGQPPKLLIYTTSNLESGIPARFSASGSGTDFTLNIHPVEEEDTATYYCQQSNEDPYTFGGGTKLEIKGGGGSGGGGSGGGGSQVTLKESGPGILQPSQTLSLTCSFSGFSLRTSGMGVGWIRQPSGKGLEWLAHIWWDDDKRYNPALKSRLTISKDTSSNQVFLKIASVDTADTATYYCAQINPAWFAYWGQGTLVTVSAEPKSSDKTHTCPPCPAPEEFGGPSVFLFPPKPKDTLMISRTPEVTCVVVAVSHEDPEVKFNWYVDGVEVHNAKTKPREEQYNSTYRVVSVLTVLHQDWLNGKEYKCKVSNKALPAPIEKTISKAKGQPREPQVYTLPPSREEMTKNQVSLTCLVKGFYPSDIAVEWESNGQPENNYKTTPPVLDSDGSFFLYSKLTVDKSRWQQGNVFSCSVMHEALHNHYTQKSLSLSPGK
notes: also called control antibody 3G8
Which EC50 [1] does the source give for B1 here?
The EC50 was 1.73 nM.

What about the EC50 [2] of the same binder?
The EC50 was 0.7 nM.

And the EC50 [3]?
The EC50 was ~0.82 nM.

And the EC50 [4]?
The EC50 was 0.56 nM.

And the EC50 [5]?
Its EC50 is 1.63 nM.

What about the EC50 [6] of the same binder?
The EC50 was 1.13 nM.

What about the EC50 [7] of the same binder?
Its EC50 is 1.22 nM and 2.13 nM.

And the EC50 [8]?
Its EC50 is 1.99 nM.

And the “EC50, activation activity for Jurkat cell” value [9]?
Its value is 0.03 nM.

What about the Maximum fluorescence value [9] of the same binder?
Its Maximum fluorescence value is 153000.

And the EC50 [10]?
Its EC50 is 2.92 nM.

What about the “Maximum mean fluorescence intensity” value [10] of the same binder?
Its value is 22300.

And the EC50 [11]?
The EC50 was 4.45 nM.

What about the EC50 [12] of the same binder?
The EC50 was 3.43 nM.

And the “Maximum mean fluorescence intensity” value [12]?
Its value is 2010.

And the EC50 [13]?
Its EC50 is 0.99 nM.

What about the “Maximum mean fluorescence intensity” value [13] of the same binder?
The value was 7520.
